Experiment [1] addresses NepR1 (Sphingopyxis granuli TFA). The experiment in a line: SPR. (In general: SPR reads the build-up and loss of mass on a sensor chip optically.)
The target in experiment [2] is NepR2 (Sphingopyxis granuli TFA). The experiment in a line: SPR.

The term Kd denotes the concentration at which binding is half-saturated. High values mean weaker binding, low ones tighter binding.

Consider EcfG2 (natural protein), for which the Kd in experiment [1] came out at 14.2 nM; in experiment [2] it was 23.5 nM.

EcfG1 (natural protein) showed a Kd in experiment [2] of 38.8 nM.

Values taken from PMC9303464.
